According to patent US20250353912A1, “COMPOSITIONS AND METHODS COMPRISING ANTIBODIES THAT BIND TO COVALENT PEPTIDE CONJUGATES” (New York University, priority 2022, published 2025):

Target: osimertinib-EGFR/HLA-A*02 (Homo sapiens, UniProt P00533)
Test: Yeast-display binding of affinity matured clones
Conditions: for binding to EGFR/HLA-A*02 (no drug-conjugation) / binding to osimertinib-EGFR/HLA-A*02: binding titration, FIG. 39; for inhibition of antigen binding by free drug: osimertinib-EGFR/HLA-A*02 10 nM, free osimertinib 1 μM, FIG. 40
Description: FIG. 40. Binding of EO_Q16 and EO_Q17 to osimertinib-EGFR/HLA-A*02 (10 nM) in the absence and presence of free osimertinib (1 μM), showing that antigen binding of these antibodies is not inhibited by the presence of free drug.
The binding partners described above in this Example show higher binding signals to osimertinib-EGFR/HLA-A*02, as tested in the yeast display format and as shown in FIGS. 39 and 40.

B1: EO_Q16: affinity matured clone of OEA2-5, osimertinib-EGFR on HLA-A*02 (antibody, V domains shown)
VH: EVQLVESGGGLVQPGGSLRLSCAASGFTISSSYIHWVRQAPGKGLEWVAYISPSYGSTSYADSVKGRFTISADTSKNTAYLQMNSLRAEDTAVYYCAREYVTMSIDYWGQGTLVTVSS
VL: DIQMTQSPSSLSASVGDRVTITCRASQSVSSAVAWYQQKPGKAPKLLIYSASSLYSGVPSRFSGSRSGTDFTLTISSLQPEDFATYYCQQYSDWPITFGQGTKVEIKRTV
With B1 the “binding to EGFR/HLA-A*02 (no drug-conjugation)” value was “not to the equivalent antigen without drug conjugation”, the “binding to osimertinib-EGFR/HLA-A*02” value was “high affinity” and the “inhibition of antigen binding by free drug” value was “not inhibited”.

B2: EO_Q17: affinity matured clone of OEA2-5, osimertinib-EGFR on HLA-A*02 (antibody, V domains shown)
VH: EVQLVESGGGLVQPGGSLRLSCAASGFTISSSYIHWVRQAPGKGLEWVAYISPSYGSTSYADSVKGRFTISADTSKNTAYLQMNSLRAEDTAVYYCARELVEMTPDYWGQGTLVTVSS
VL: DIQMTQSPSSLSASVGDRVTITCRASQSVSSAVAWYQQKPGKAPKLLIYSASSLYSGVPSRFSGSRSGTDFTLTISSLQPEDFATYYCQQYSSWPITFGQGTKVEIKRTV
With B2 the “binding to EGFR/HLA-A*02 (no drug-conjugation)” value was “not to the equivalent antigen without drug conjugation”, the “binding to osimertinib-EGFR/HLA-A*02” value was “high affinity” and the “inhibition of antigen binding by free drug” value was “not inhibited”.
